Assay: label from the status in PepcDB records

## MPKSCSASNCTNRYNNKNPEITFHRFPFSKPSVLKQWLDNIGRDDFQPRKHMVICSLHFTPDCFSGLGNRKNLLWNAVPTLFAVPTQDANQNNFRKRLKRALQSASEKWDGITPDGLPLFTEEMHEDTQDCNNNEVADCQSTKVFAAADHTYALSDACTTKARLFNILDANRWLRKRLQAKCRVIKRMKLKLKDAQRELLTLRQQIRHRHVNH
  protein production: failed

## MPKTLIILAHPNISQSTVHKHWSDAVRQHTDRFTVHELYAVYPQGKIDVAAEQKLIETHDSLVWQFPIYWFNCPPLLKQWLDEVLTYGWAYGSKGKALKGRKIALAVSLGAPAADYRADGAVGCSVAEVLRPFELTAKYCNADYRPPFTFHTIDSNAGYSEAARQEVERSARDYLAWLDALEHHHHHH
  protein production: not failed

## MPKTLIILAHPNISQSTVHKHWSDAVRQHTDRFTVHELYAVYPQGKIDVAAEQKLIETHDSLVWQFPIYWFNCPPLLKQWLDEVLTYGWAYGSKGKALKGRKIALAVSLGAPAADYRADGAVGCSVAEVLRPFELTAKYCNADYRPPFTFHTIDSNAGYSEAARQEVERSARDYLAWLDALQQTLEHHHHHH
  protein production: not failed

## MPKVLNVVFFFSPLIISAVITYFTWVKIETILIDFGLWLAMVTAFYIFLNFYLLLRRSKRYNIEVADEMTGFKIAAFVTSFNEDPEIVERTLLSVKDAVSNQGDVFLLDDSTDENISRRLREFCTRNDINYVHRKDRRGYKAGAINDALRRIQGYDLVAIFDADQRPVRDFFKQVLPYFKDPKIAFVQVPQNYSETFSGISTGAKYQQEPFLRIIMRGRSGRSAFSLGSGTVFRIQALREVGYLPENSITEDAAVSIKLHSKGYNSVYIDVPLIWYGEPPQDLNAYLIQQSRWALGYFQLTKDIIKADLSFLKYYDYFSGFLYWIKEGPLAIVEFISPIVFLLTEIPILRINPILYLLVYLPYLFISIGIFVAGIREETEYGLKGFFYHQCVEFLEFTAVTASFISWLLGRKRPFRVTPKGGGRLNLRILLPHIVILLLLIVSTVKGILWLISANSNFLLYYAIIVNVFWAIYHIPFFLGGILISARFKTRENLTKVVYY
  protein production: failed

## MPLEASELKPTAGPLEASELKPTAGPLEASELKPTAGPLEASELKPTAGPLEASELKPTAGPLEASELKPTAGPLEASELKPTAGMEKTKKIAVMSGKGGVGKTTVAVNLAVALAAEGYQVGLLDLDLHGPNVQRMLGVSLPPSEGEKIVPAKYGDSLKVFSLAMILQEGAPVIWRGPLKHKAIEQLTRDVEWGDLDYLICDLPPGTGDEALSTFQIIKPDAVIVVSTPQKVAGDDVRRAINFVKRLSGKILGLVENMSYLVCPNCGEKIYVFGKGETEKLAEEFGIPLIARIPMDPEVVSLSDEGRPAVVYKRGTVIEEEFKKIVEKVLSLLEHHHHHH
  protein production: failed

## MPLFKFAIDVQYRSNVRDPRGETIERVLREEKGLPVKKLRLGKSIHLEVEAENKEKAYEIVKKACEELLVNPVVEEYEVREL
  protein production: not failed

## MPLIVSSSIMIHAKLIYTFEDAQLDGQIVAALDVNTVANAVYAHNYGSNLVKTRNIQSLSVKEVTKLQANMLLMSPPCQPHTRQGLQRDTEDKRSDALTH
  protein production: failed

## MPLNRNHSELRSGKVNLKNGDPFTIALFGVDSDEKRKQQGGGERSDTIMVLSINPKEKKTELVSIPRDTKAEIAGRGTEEKINHAYAYGGPNMAVKTIEKLMNVPIDHYATIDMDGLHDMIDTLGGVDVVSNSTFTMGANHFVKGEKTHVDGDAAMDFIRSRKEDGAGGDFGRQERQQLILEAMADKMTSASSITHFNTLMNQIQKNVKTDLKLGDLNTIRTKYKDANDQVNRHQLEGEGGIQNDGLYYFIPSDASKNENTQLLRDNLNLLEHHHHHH
  protein production: not failed

## MPLRLPPMLPSVDTSEELDAMVRDEALLRPAAQDLCAHLGLTGARLVRFDDGSLPVYAVGGTLVLKLFPGFEAAEGVREARVLSHLWGQLPVPTPRLHAGEMYKNGWRYVLMSRLPGVSLSTAWSRIPAVEQDRIVDEAAETLAALHSVDWKPLADVVGPADWGTFLRRQRAGVLEHHRAAGLPKPWLDQIPGFLDAVRLPASGERVLLHTEFMREHLTVDPQDGWRLTGLFDFEPAMIGDPAYDFVSVGLFMSRGDPRLLRRFYQAYGRPPHDPYQLLAYTLLHVYSDLAWYLREMPAPPHPRLDALAETWFGTDG
  protein production: failed

## MPLVSVVMPVYNSAATLGAAVRSVLTQTHGDLELLVTDDQSSDGSMDLLREFAAQDERVLPRSSPERGGAGRARNLAIERARGDYVAFLDSDDMWLPEKTEKQLAFAAEGTAPLTFTSYFKMDADHDGESTDWVPNGRVIRAREHVDYRAMLVQDHIGALTAMYDRNVLGTRLMPEMRKRQDYALWLSIMRDGADARGLAEPLAVYRAHQAGSLSSNKLSLVEYNWALYREHENLSVPRATRALAGAVWQSLRNSRILEHHHHHH
  protein production: failed

From a protein production outcome set (Wang et al. 2014)
